{"source": "the Human Domainome abundance scans (Beltran et al. 2025)", "parents": {"B1": {"name": "Zinc finger protein ZIC 2, residues 250 to 295; numbered along this chain, O95409 (parent)", "chain": "QCIKQELICKWIDPEQLSNPKKSCNKTFSTMHELVTHVSVEHVGGP"}}, "note": "± gives the uncertainty stated by the source."}
{"variants_of": "B1", "experiment": "abundance fitness (aPCA) (normalised: wild type 0, dead -1); higher = more abundant; growth selection in yeast, the domain comes from the species named", "settings": "Homo sapiens"}
{"variant": "QCIKQELICKWIDPEQLSNPKKSCNKTFCTMHELVTHVSVEHVGGP", "abundance fitness": "-0.337 ± 0.094"}
{"variant": "QCIKQELICKWIDPEQLSNPKKSCNKTFRTMHELVTHVSVEHVGGP", "abundance fitness": "0.236 ± 0.084"}
{"variant": "QCIKQELICKWIDPEQLSNPKKSCNKTFGTMHELVTHVSVEHVGGP", "abundance fitness": "0.03 ± 0.084"}
{"variant": "QCIKQELICKWIDPEQLSNPKKSCNKTFITMHELVTHVSVEHVGGP", "abundance fitness": "-0.356 ± 0.14"}
{"variant": "QCIKQELICKWIDPEQLSNPKKSCNKTFNTMHELVTHVSVEHVGGP", "abundance fitness": "-0.213 ± 0.13"}
{"variant": "QCIKQELICKWIDPEQLSNPKKSCNKTFQTMHELVTHVSVEHVGGP", "abundance fitness": "0.114 ± 0.11"}
{"variant": "QCIKQELICKWIDPEQLSNPKKSCNKTFWTMHELVTHVSVEHVGGP", "abundance fitness": "-0.386 ± 0.095"}
{"variant": "QCIKQELICKWIDPEQLSNPKKSCNKTFLTMHELVTHVSVEHVGGP", "abundance fitness": "0.07 ± 0.092"}
{"variant": "QCIKQELICKWIDPEQLSNPKKSCNKYFSTMHELVTHVSVEHVGGP", "abundance fitness": "-0.818 ± 0.17"}
{"variant": "QCIKQELICKWIDPEQLSNPKKSCNKSFSTMHELVTHVSVEHVGGP", "abundance fitness": "-0.001 ± 0.087"}
{"variant": "QCIKQELICKWIDPEQLSNPKKSCNKNFSTMHELVTHVSVEHVGGP", "abundance fitness": "0.001 ± 0.11"}
{"variant": "QCIKQELICKWIDPEQLSNPKKSCNKQFSTMHELVTHVSVEHVGGP", "abundance fitness": "0.119 ± 0.098"}
{"variant": "QCIKQELICKWIDPEQLSNPKKSCNKCFSTMHELVTHVSVEHVGGP", "abundance fitness": "-0.17 ± 0.099"}
{"variant": "QCIKQELICKWIDPEQLSNPKKSCNKAFSTMHELVTHVSVEHVGGP", "abundance fitness": "-0.116 ± 0.089"}
{"variant": "QCIKQELICKWIDPEQLSNPKKSCNKEFSTMHELVTHVSVEHVGGP", "abundance fitness": "0.188 ± 0.097"}
{"variant": "QCIKQELICKWIDPEQLSNPKKSCNKHFSTMHELVTHVSVEHVGGP", "abundance fitness": "-0.449 ± 0.14"}
{"variant": "QCIKQELICKWIDPEQLSNPKKSCNKFFSTMHELVTHVSVEHVGGP", "abundance fitness": "0.174 ± 0.11"}
{"variant": "QCIKQELICKWIDPEQLSNPKKSCNKRFSTMHELVTHVSVEHVGGP", "abundance fitness": "-0.025 ± 0.084"}
{"variant": "QCIKQELICKWIDPEQLSNPKKSCNKGFSTMHELVTHVSVEHVGGP", "abundance fitness": "0.104 ± 0.083"}
{"variant": "QCIKQELICKWIDPEQLSNPKKSCNKWFSTMHELVTHVSVEHVGGP", "abundance fitness": "-0.296 ± 0.089"}
{"variant": "QCIKQELICKWIDPEQLSNPKKSCNKVFSTMHELVTHVSVEHVGGP", "abundance fitness": "0.06 ± 0.088"}
{"variant": "QCIKQELICKWIDPEQLSNPKKSCNKDFSTMHELVTHVSVEHVGGP", "abundance fitness": "0.072 ± 0.11"}
{"variant": "QCIKQELICKWIDPEQLSNPKKSCNKLFSTMHELVTHVSVEHVGGP", "abundance fitness": "-0.19 ± 0.089"}
{"variant": "QCIKQELICKWIDPEQLSNPKKSCNKIFSTMHELVTHVSVEHVGGP", "abundance fitness": "0.381 ± 0.11"}
{"variant": "QCIKQELICKWIDPEQLSNPKKSCNKMFSTMHELVTHVSVEHVGGP", "abundance fitness": "0.182 ± 0.094"}
{"variant": "QCIKQELICKWIDPEQLSNPKKSCNKTGSTMHELVTHVSVEHVGGP", "abundance fitness": "-0.598 ± 0.089"}
{"variant": "QCIKQELICKWIDPEQLSNPKKSCNKTCSTMHELVTHVSVEHVGGP", "abundance fitness": "-0.725 ± 0.11"}
{"variant": "QCIKQELICKWIDPEQLSNPKKSCNKTMSTMHELVTHVSVEHVGGP", "abundance fitness": "-0.683 ± 0.11"}
{"variant": "QCIKQELICKWIDPEQLSNPKKSCNKTHSTMHELVTHVSVEHVGGP", "abundance fitness": "-1.04 ± 0.15"}
{"variant": "QCIKQELICKWIDPEQLSNPKKSCNKTESTMHELVTHVSVEHVGGP", "abundance fitness": "-0.547 ± 0.1"}
{"variant": "QCIKQELICKWIDPEQLSNPKKSCNKTQSTMHELVTHVSVEHVGGP", "abundance fitness": "-0.705 ± 0.12"}
{"variant": "QCIKQELICKWIDPEQLSNPKKSCNKTVSTMHELVTHVSVEHVGGP", "abundance fitness": "-0.724 ± 0.1"}
{"variant": "QCIKQELICKWIDPEQLSNPKKSCNKTKSTMHELVTHVSVEHVGGP", "abundance fitness": "-0.471 ± 0.11"}
{"variant": "QCIKQELICKWIDPEQLSNPKKSCNKTWSTMHELVTHVSVEHVGGP", "abundance fitness": "-0.968 ± 0.1"}
{"variant": "QCIKQELICKWIDPEQLSNPKKSCNKTDSTMHELVTHVSVEHVGGP", "abundance fitness": "-0.914 ± 0.15"}
{"variant": "QCIKQELICKWIDPEQLSNPKKSCNKTSSTMHELVTHVSVEHVGGP", "abundance fitness": "-0.887 ± 0.097"}
{"variant": "QCIKQELICKWIDPEQLSNPKKSCNKTASTMHELVTHVSVEHVGGP", "abundance fitness": "-0.811 ± 0.1"}
{"variant": "QCIKQELICKWIDPEQLSNPKKSCNKTLSTMHELVTHVSVEHVGGP", "abundance fitness": "-0.668 ± 0.092"}
{"variant": "QCIKQELICKWIDPEQLSNPKKSCNKTTSTMHELVTHVSVEHVGGP", "abundance fitness": "-0.631 ± 0.1"}
{"variant": "QCIKQELICKWIDPEQLSNPKKSCNKTYSTMHELVTHVSVEHVGGP", "abundance fitness": "-0.724 ± 0.13"}
{"variant": "QCIKQELICKWIDPEQLSNPKKSCNKTRSTMHELVTHVSVEHVGGP", "abundance fitness": "-0.84 ± 0.09"}
{"variant": "QCIKQELICKWIDPEQLSNPKKPCNKTFSTMHELVTHVSVEHVGGP", "abundance fitness": "0.043 ± 0.11"}
{"variant": "QCIKQELICKWIDPEQLSNPKKVCNKTFSTMHELVTHVSVEHVGGP", "abundance fitness": "0.107 ± 0.091"}
{"variant": "QCIKQELICKWIDPEQLSNPKKFCNKTFSTMHELVTHVSVEHVGGP", "abundance fitness": "0.14 ± 0.13"}
{"variant": "QCIKQELICKWIDPEQLSNPKKRCNKTFSTMHELVTHVSVEHVGGP", "abundance fitness": "0.566 ± 0.084"}
{"variant": "QCIKQELICKWIDPEQLSNPKKMCNKTFSTMHELVTHVSVEHVGGP", "abundance fitness": "0.246 ± 0.098"}
{"variant": "QCIKQELICKWIDPEQLSNPKKQCNKTFSTMHELVTHVSVEHVGGP", "abundance fitness": "0.226 ± 0.1"}
{"variant": "QCIKQELICKWIDPEQLSNPKKYCNKTFSTMHELVTHVSVEHVGGP", "abundance fitness": "0.079 ± 0.15"}
{"variant": "QCIKQELICKWIDPEQLSNPKKKCNKTFSTMHELVTHVSVEHVGGP", "abundance fitness": "0.309 ± 0.11"}
{"variant": "QCIKQELICKWIDPEQLSNPKKLCNKTFSTMHELVTHVSVEHVGGP", "abundance fitness": "0.282 ± 0.09"}
{"variant": "QCIKQELICKWIDPEQLSNPKKTCNKTFSTMHELVTHVSVEHVGGP", "abundance fitness": "0.193 ± 0.1"}
{"variant": "QCIKQELICKWIDPEQLSNPKKGCNKTFSTMHELVTHVSVEHVGGP", "abundance fitness": "0.111 ± 0.084"}
{"variant": "QCIKQELICKWIDPEQLSNPKKICNKTFSTMHELVTHVSVEHVGGP", "abundance fitness": "0.095 ± 0.17"}
{"variant": "QCIKQELICKWIDPEQLSNPKKWCNKTFSTMHELVTHVSVEHVGGP", "abundance fitness": "-0.01 ± 0.088"}
{"variant": "QCIKQELICKWIDPEQLSNPKKHCNKTFSTMHELVTHVSVEHVGGP", "abundance fitness": "0.156 ± 0.12"}
{"variant": "QCIKQELICKWIDPEQLSNPKKECNKTFSTMHELVTHVSVEHVGGP", "abundance fitness": "0.002 ± 0.1"}
